Data as given in patent US7329737 (DYAX, dated 2008).
Changes are numbered by the printed parent chain.

B1: M0114-E02 (Fab, V domains shown)
VH: EVQLLESGGGLVQPGGSLRLSCAASGFTFSHYKMMWVRQAPGKGLEWVSYIYPSGGWTGYADSVKGRFTISRDNSKNTLYLQMNSLRAEDTAVYYCARVGPWDAFDIWGQGTMVTVSS
VL: DIQMTQSPATLSLSPGERATLSCRASQSVGGYLAWYQQKPGQAPRLLIYDASKRATGIPARFSGSGSGTDFTLTISSLEPEDFAVYYCQQRSKWPPYTFGQGTKLEIKR
B2: M0124-C12 (Fab, V domains shown)
VH: B1 VH with H31W, K33T, M35Q, Y50R, P53S, W57G, G59Y, V93M, D103G
VL: DIQMTQSPGTLSLSPGERATLSCRASQSVSSNYLAWYQQKPGKAPKLLIYAASSLQSGVPSRFSGSGSGTDFTLTISSLQPEDFATYYCQQRWTFGQGTKVEIKR
B3: M0123-E02 (Fab, V domains shown)
VH: EVQLLESGGGLVQPGGSLRLSCAASGFTFSHYRMDWVRQAPGKGLEWVSGIYPSGGHTNYADSVKGRFTISRDNSKNTLYLQMNSLRAEDTAVYYCARDRGWYGADYWGQGTLVTVSS
VL: AQSALTQPASVSGSPGQSITISCSGTSSDVGAYYHVSWYQQHPGKAPKLMIYDVSNRPSGVSNRFSGSKSGNTASLTISGLQAEDEADYYCSLYIGTSTPWVFGGGTKLTVLG
B4: M0102-H02 (Fab, V domains shown)
VH: EVQLLESGGGLVQPGGSLRLSCAASGFTFSMYRMFWVRQAPGKGLEWVSVIGPSGGQTAYADSVKGRFTISRDNSKNTLYLQMNSLRAEDTAVYYCARVGVWYGMDVWGQGTTVTVSS
VL: DIQMTQSPATLSLSPGERAALSCRASQSVSNFLAWYQQKPGQAPRLLIYGASNRATDIPARFSGSGSGTDFTLTISSLEPEDFATYYCQQANSFPLTFGGGTKVEIKR
B5: M0092-G06 (Fab, V domains shown)
VH: B4 VH with M31H, R33G, F35N, V50S, G52W, P53S, Q57Y, A59T, V101I, G104S
VL: AQSELTQPRSVSGSPGQSVTISCTGTSGEVANYNYVSWYHQDPGLVPKLKIYDVSRRPSGVPDRFSGAKSGDTASLTISGLQAEDEGDYYCASYVGNDKLVFGGGTKLTVLG
B6: M0107-B05 (Fab, V domains shown)
VH: B4 VH with M31H, R33L, F35M, V50S, G52R, P53S, Q57I, A59R, V101Y, W102Y
VL: AQSELTQPASVSGSPGQSITISCTGTSSDVGAYNYVSWYQQHPGKVPKLMIYEVSNRPSGVSNRFSGSKSGNTASLTISGLQAEDEADYYCNSYTTSATLVFGGGTKLTVLS
B7: M0093-E11 (Fab, V domains shown)
VH: B4 VH with M31H, R33E, F35A, P41H, G52Y, Q57A, A59R, G100A, V101Q, W102Y
VL: DIQMTQSPATLSLSPGERATLSCRASQSVSSYLAWYQQKPGQAPRLLIYDASNRATGIPARFSGSGSGTDFTLTISSLEPEDFAVYYCQQRSNWLTFGGGTKVEIKR
B8: M0097-F08 (Fab, V domains shown)
VH: B4 VH with M31N, R33P, F35V, Q57K, A59K
VL: DIQMTQSPSTLSASVGDRVTISCRASQGIGTHLNWYQQKLGNVPKLLIYAASGLQSGVPPRFSGSGSGTDFTLTISSLHPEDSATYFCQQSYSVPRTFGQGTKVEIKR
B9: M0132-C01 (Fab, V domains shown)
VH: EVQLLESGGGLVQPGGSLRLSCAASGFTFSRYLMWWVRQAPGKGLEWVSVIGPSGGWTRYADSVKGRFTISRDNSKNTLYLQMNSLRAEDTAVYYCARHPGDYWGQGTLVTVSS
VL: AQSALTQPRSVSGSPGQSVTISCTGTGSNIDGYNYVSWYQQYPGNAPKLIIYDVGKRPSGVPNRFSGSKSGNTASLTISGLQAEDEADYYCCSYAGSYSYVFGVGTKVTVLG
B10: M0122-A05 (Fab, V domains shown)
VH: EVQLLESGGGLVQPGGSLRLSCAASGFTFSHYPMHWVRQAPGKGLEWVSSIWPSGGHTSYADSVKGRFTISRDNSKNTLYLQMNSLRAEDTATYYCARLSQPIWGQGTLVTVSS
VL: DIQMTQSPSSFSASTGDRVTITCRASQSISRWLAWYQQKPGKAPKLLIYEASTLESGVPSTFSGSGSGTEFTLTISSLQPDDFATYYCQQYNSYPLTFGGGTKVEIKR
B11: M0094-D08 (Fab, V domains shown)
VH: EVQLLESGGGLVQPGGSLRLSCAASGFTFSHYLMVWVRQAPGKGLEWVSGIVPSGGYTMYADSVKGRFTISRDNSKNTLYLQMNSLRAEDTAVYYCTRASYSSFGLDYWGQGTLVTVSS
VL: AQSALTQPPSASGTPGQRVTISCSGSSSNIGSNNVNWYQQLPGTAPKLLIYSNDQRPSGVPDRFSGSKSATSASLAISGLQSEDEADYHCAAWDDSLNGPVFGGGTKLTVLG
B12: M0096-D03 (Fab, V domains shown)
VH: EVQLLESGGGLVQPGGSLRLSCAASGFTFSHYWMVWVRQAPGKGLEWVSWIGPSGGGTVYADSVKGRFTISRDNSKNTLYLQMNSLRAEDTAVYYCARGNGGFDSWGRGTLVTVSS
VL: AQSELTQPRSVSGSPGQSVTISCTGTTRDVGAYKYVSWYQQYPGKAPKLMLSDVSKRPSGVPDRFSGSKSGNTASLTISGLQSEDEADYYCCSFAGSYTWIFGGGTKVTVLG
B13: M0121-H07 (Fab, V domains shown)
VH: EVQLLESGGGLVQPGGSLRLSCAASGFTFSKYYMVWVRQAPGKGLEWVSVIGPSGGWTTYADSVKGRFTISRDNSKNTLYLQMNSLRAEDTAVYYCARVDYSNYFDYWGQGTLVTVSS
VL: DIQMTQSPSSLSASVGDRVTITCRASQSISRYLNWYQQKPGKAPKLLIYAASNLQSGVPSRFSGSGSGRDYTLTISSLQPEDFVTYYCQQSYSTPWTFGQGTKVEIKR
B14: M0114-F04 (Fab, V domains shown)
VH: EVQLLESGGGLVQPGGSLRLSCAASGFTFSHYYMAWVRQAPGKGLEWVSYISPSGGSTKYADSVKGRFTISRDNSKNTLYLQMNSLRAEDTAMYYCARGGGTGTFDIWGQGTMVTVSS
VL: AQSELTQPASVSGSPGQSIAISCTGTSSDIGAYPFVSWYQQHPGKAPKLLIYGVTTRPFGVSDRFSGSKSGSTASLTISGLQAEDEADYYCSSYAGGRNLPYVFGTGTTVTVLG
B15: M0136-B06 (Fab, V domains shown)
VH: EVQLLESGGGLVQPGGSLRLSCAASGFTFSSYIMIWVRQAPGKGLEWVSYIRPSGGYTKYADSVKGRFTISRDNSKNTLYLQMNSLRAEDTAVYYCARVINAGPGRGYYWRGYSYSDAFDIWGQGTMVTVSS
VL: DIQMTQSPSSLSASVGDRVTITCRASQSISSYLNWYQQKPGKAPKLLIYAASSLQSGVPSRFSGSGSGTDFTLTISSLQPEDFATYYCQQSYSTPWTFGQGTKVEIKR
B16: M0131-G06 (Fab, V domains shown)
VH: EVQLLESGGGLVQPGGSLRLSCAASGFTFSSYAMTWVRQAPGKGLEWVSSISSSGGDTAYADSVKGRFTISRDNSKNTLYLQMNSLRAEDTAVYYCATERHYIWGSYRYSWFDPWGQGTLVTVSS
VL: AQYELTQAPSASGTPGQRVTISCSGSRSNIGTNPVNWYQHVPGTAPKLLILVNNQRPSGVPDRFSGSKSGASASLAISGLQSEDEAEYYCATWDGSLNGPVFGGGTKLTVLR
B17: M0102-G11 (Fab, V domains shown)
VH: EVQLLESGGGLVQPGGSLRLSCAASGFTFSRYMMEWVRQAPGKGLEWVSGISPSGGTTKYADSVKGRFTISRDNSKNTLYLQMNSLRAEDTAVYYCTRGGYNNYYYALDVWGQGTTVTVSS
VL: DIQMTQSPDTLSLSPGERATLSCRASESVSSSYFAWYQQKRGQAPRLLIYGASRRVTGIPDRFSGSGSGTDFTLTITRLEPEDFAVYYCQQYGGSPRSFGQGTKVEIKR
B18: M0115-F08 (Fab, V domains shown)
VH: EVQLLESGGGLVQPGGSLRLSCAASGFTFSHYVMVWVRQAPGKGLEWVSSIYPSGGMTVYADSVKGRFTISRDNSKNTLYLQMNSLRAEDTAVYYCARRGIANSFNIWGQGTMVTVSS
VL: B6 VL with A32G, V46A, N92S, T96S, A98S, L100W, S112G
B19: M0118-E07 (Fab, V domains shown)
VH: EVQLLESGGGLVQPGGSLRLSCAASGFTFSHYPMDWVRQAPGKGLEWVSRIYPSGGATKYADSVKGRFTISRDNSKNTLYLQMNSLRAEDTATYYCARGGGAFDIWGQGTMVTVSS
VL: DIQMTQSPSSLSASVGDRVTITCRASQGISNYLAWYQQKPGKVPKLLIYAASTLQSGVPSRFSGSGSGTDFTLTISSLQPEDVATYYCQKYNSAPLTFGGGTKVEIKR
B20: M0102-C12 (Fab, V domains shown)
VH: B12 VH with W33L, V35G, W50V, G52W, G57I, V59K, R108Q
VL: B19 VL with L96W, G100Q
B21: M0113-E03 (Fab, V domains shown)
VH: EVQLLESGGGLVQPGGSLRLSCAASGFTFSRYTMFWVRQAPGKGLEWVSGIYPSGGKTIYADSVKGRFTISRDNSKNTLYLQMNSLRAEDTAVYYCATGGVFGVVDYWGQGTLVTVSS
VL: DIQMTQSPSSLSASVGDRVTITCRASQSINSYLNWYQQKPGKAPNLLIYAASSLQNGVPSRFSGSGSGTDFTLTISSLQPEDFAAYYCQQSYSTPLTFGGGTKVEIKR

Target: T1, hK1 (human tissue kallikrein 1), recombinant (human, UniProt P06870 25-262)
T1 construct: Expressed in P. pastoris from KLK1 cDNA and purified; enzymatically active; also called KLK1; Recombinant (Pichia) Kallikrein
Experiment: SPR

Row | Binder | Kd [nM] | koff [s⁻¹] | kon [M⁻¹ s⁻¹]
1 | B1 | 23.2 | 0.00936 | 403000
2 | B2 | 32.5 | 0.126 | 3.89e+06
3 | B3 | 26.8 | 0.00613 | 229000
4 | B4 | 30.8 | 0.0105 | 340000
5 | B5 | 30.9 | 0.00663 | 215000
6 | B6 | 33.8 | 0.0203 | 600000
7 | B7 | 32.4 | 0.0436 | 1.34e+06
8 | B8 | 33.1 | 0.0117 | 353000
9 | B9 | 25.6 | 0.0035 | 137000
10 | B10 | 30.8 | 0.00453 | 147000
11 | B11 | 29.8 | 0.00707 | 237000
12 | B12 | 28.1 | 0.00945 | 337000
13 | B13 | 32.8 | 0.0055 | 168000
14 | B14 | 30.7 | 0.0107 | 348000
15 | B15 | 33 | 0.00661 | 200000
16 | B16 | 29.7 | 0.00209 | 70300
17 | B17 | 24.8 | 0.0116 | 467000
18 | B18 | 32.6 | 0.0158 | 484000
19 | B19 | 31.8 | 0.0871 | 2.74e+06
20 | B20 | 35.4 | 2.62 | 7.39e+07
21 | B21 | 31.5 | 500 | –
